Experimental findings from patent US20240335553A1 are described below.

The target of experiment [1] is cation-independent mannose-6-phosphate receptor (CI-MPR), recombinant human IGF-II R (human) (UniProt P11717). Nature of the experiment: SPR, CI-MPR immobilized, steady-state fitting. (Surface plasmon resonance follows binding to a sensor surface in real time, without labels.)
The target is the same in experiment [2]. Nature of the experiment: SPR, CI-MPR immobilized, 1:1 Langmuir global fit.
For experiment [3] the target is unchanged. Nature of the experiment: SPR, CI-MPR immobilized, antibody as analyte, 2-fold dilutions from 500 nM.
For experiment [4] the target is unchanged. As to the kind of experiment: SPR (Biacore T200), CI-MPR immobilized on a CM5 chip, antibody as analyte in 2-fold dilutions from 500 nM to 0.98 nM.
The target is the same in experiment [5]. Nature of the experiment: SPR, CI-MPR immobilized.
The target of experiment [6] is epidermal growth factor receptor (EGFR) (human) (UniProt P00533). As to the kind of experiment: cell-based or functional assay.

As to “trastuzumab M6P-glycoform 6 (trastuzumab carrying the M6P-Man3GlcNAc2 glycan) (antibody)”, the Kd – broadly, the concentration at which binding is half-saturated – in experiment [1] was determined as 700 nM.
As to “trastuzumab M6P-glycoform 3 (trastuzumab carrying the M6P tetrasaccharide glycan at the Fc domain) (antibody)”, the Kd stood at 28.6 nM in experiment [2], 30.2 nM in experiment [3] and 28.6 nM in experiment [4].
For “cetuximab M6P-glycoform 10 (cetuximab carrying the bis-phosphorylated heptasaccharide N-glycan) (antibody)”, in experiment [5], the fold affinity against glycoform (9) is 2 fold. The Kd in experiment [2] and in experiment [4] was 29.6 nM each time.
On to “trastuzumab M6P-glycoform 7 (trastuzumab carrying the bis-phosphorylated heptasaccharide moiety) (antibody)”, for which the fold affinity against glycoform (3) in experiment [5] is 4 fold. Moreover, the dissociation constant Kd in experiment [2] and in experiment [4] was 5.4 nM throughout.
With “cetuximab M6P-glycoform 9 (cetuximab carrying the M6P tetrasaccharide glycan at the Fc domain) (antibody)”, the degradation of total EGFR in HepG2 cells (Western blot, 48 h, 10 nM antibody) in experiment [6] came to 57%. Further, the dissociation constant Kd in experiment [2] came to 70.3 nM; in experiment [3], 72.4 nM; in experiment [4], 70.3 nM.
